The results in this text go back to patent US5262522.

In experiment [1] the target is Endogenous high affinity simian LIF receptors on COS-7 cells (simian). As to the kind of experiment: Scatchard analysis of 125I-LIF binding to non-transfected COS-7 cells (curve E).
Experiment [2] shares this target. The experiment is described as follows: Scatchard analysis of 125I-LIF binding to COS-7 cells transfected with pHLIFR-65 and CAV, high affinity site (curve B, site 1).

For “Recombinant human leukemia inhibitory factor (LIF) (from UniProt P15018) (ligand)”, the Kd in experiment [1] worked out at 0.03 nM; in experiment [2], 0.033 nM.
